Measurements: patent US20210284688A1, “MUCUS-PENETRATING PEPTIDES AND SCREENING ASSAY” (BOARD OF REGENTS, THE UNIVERSITY OF TEXAS SYSTEM, priority 2016, published 2021)
Counter-ions that a name gives are not always drawn. Where no end group is shown, it is not given here.

Legend:
Figure 17 = assay: Figure 17
Source text: Table printed on a drawing sheet, Figure 17
AK10 and Dextran 40 kDa are controls.
First reader's note: The Sample column holds peptide sequences with SEQ ID NOs as well as non-peptide controls; on the sheet the PBS/CM sub-heads stand in one merged head cell, split here into a second head row.

Figure 15 = assay: Figure 15
Source text: Table printed on a drawing sheet, Figure 15

O=C1OC2(c3ccc(O)cc3Oc3cc(O)ccc32)c2ccccc21 [Fluorescein Na Salt]
De/10^-5 cm^2 s^-1 | CM (Figure 17): 1.05 10^-5 cm^2 s^-1

M13 ISLPSPTGGGS (SEQ ID NO: 29) (also: displayed on M13 phage)
De/10^-9 cm^2 s^-1 | CM (Figure 15): 4.00 10^-9 cm^2 s^-1

M13 YNSPTHHGGGS (SEQ ID NO: 31) (also: displayed on M13 phage)
De/10^-9 cm^2 s^-1 | CM (Figure 15): 1.45 10^-9 cm^2 s^-1

M13 SSQLSRPGGGS (SEQ ID NO: 30) (also: displayed on M13 phage)
De/10^-9 cm^2 s^-1 | CM (Figure 15): 1.72 10^-9 cm^2 s^-1
